tested on: MS2 coat protein; assay: apparent KD of MS2 coat protein; designed switch direction (-1 OFF switch, 1 ON switch): 1; higher = weaker reporter binding; settings: Eterna round: R98; input ligand: none
Method: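 RNA-MaP: designed FMN/MS2 RNA switches (84 nt design region) are transcribed on-chip within common flanks and titrated with SNAP-549-labelled MS2 coat protein (about 1-3000 nM) in 100 mM Tris pH 7.5, 80 mM KCl, 4 mM MgCl2, without or with 200 uM FMN. Median apparent KD per design; activation ratio = KD,OFF / KD,ON.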

| Sequence | apparent KD of MS2 coat protein [nM] |
| --- | --- |
| AAAACAUGAGGAUCACCCAUGUAAAGUUCGGAAAGUUAGAGUGAGGAUAUACAAAUUUUUAUUUAGUAGAAGGCACUGGGUACA [JR_SSNG3_Sub032Nu] | 26.7 |
| UGAUCGCUUGGAGGAUAUCCAACUAUCAUAGUUGGAGAAGGCCAAGCUACAGAGCUAAGCUUGGAAGUCACUUCCGAUCAACAC [pwkr ssNG1 F9.4.3] | 59.1 |
| GGAUCCAUCACAGGAUAUGCUGGACUUUGUCCAGCAGAAGGGUGACAUGAGGAUCACCCAUGUACAAAGGAUCCUAUAUUUAAU [Denovo 28] | 377 |
| AAAUAAAAUAUAGGAUAUGGAAACAUGAGGAUCACCCAUGUAAAAUAAAAUAAAUAAUAAUAUAACCAGAAGGAUAAAAUAUAA [LRO002_SS NG 2] | 33.9 |

tested on: MS2 coat protein; assay: apparent KD of MS2 coat protein, switch ON state; designed switch direction (-1 OFF switch, 1 ON switch): 1; higher = weaker reporter binding; settings: FMN input: 0 or 200 uM; Eterna round: R93 (includes R88 designs)
In short: (§1)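 Illumina sequencing clusters were used for on-chip transcription of designed RNA switches. Titration with SNAP-549-labelled MS2 coat protein followed, in twofold steps from 0.7 or 1.5 nM to 3 µM in 100 mM Tris-HCl pH 7.5, 80 mM KCl, 4 mM MgCl2, without or with constant ligand. Apparent KD is each design's median of fits to normalised cluster binding curves.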

| Sequence | apparent KD of MS2 coat protein [nM] |
| --- | --- |
| AUAUAUAUAAGGAAGGAUAUCCAAAAAUAAACAUGAGGAUCACCCAUGUCCAUAAAGAAUAAAUGGGAGAAGGUCCAUAUAUAUA [77%, More Tesla, 9] | 24.2 |
| AAAAAACAUGAGGAUCACCCAUGUAGAAACAUGGGAGGAUAUACGAAGACGAAAGUCAAAGUAGAAGGCCUAAGAA [Garnet 88] | 182 |
| AAAAAACAUGAGGAUCACCCAUGUGAAAAUAUGGGAGGAUAUACAAAGACGAGAGUCAAAGUAGAAGGCCUAAAAA [Mat - Same State 1 - Eli mod - D87] | 26.6 |
| GAAAAACAUGAGGAUCACCCAUGUGUAAAUAUGGGAGGAUAUACAAAGACGUAAGUCAGAGUAGAAGGCCUAAAAG [Garnet 93] | 29 |
| AAUAAUUAUACGAAGGAUAUCGGUAAUUAGACAUGAGGAUCACCCAUGUUAUAUGGUUAAAUAUUCGAGAAGGUCGAGGGUGAAA [JR_SS002_Sub505] | 36.1 |
| AACAUACAUGAGGAUCACCCAUGUUCCGGCAGGUCAGGAUAUUUAUCGAAUGAGUUCUAGAAAGAAGGGACAUAAA [JR_SS001_Sub008] | 45.8 |
| UAUAGACAUGAGGAUCACCCAUGUAGAAUUAUGGGAGGAUAUACAAAGACGAGAGUCAGAGUAGAAGGCCUAGGAU [salish99-ss1-154] | 22.2 |
| UGGAGACAUGAGGAUCACCCAUGUGAGAAGAGGCGAGGAUAUCGAAAGAAAGAAGAGAAACGAGAAGGCGCGAGAC [salish99-SS1-045] | 25.2 |
| AAAGAAAAACUAGAGGAUAUCCGAGUGGUAACAUGAGGAUCACCCAUGUGAUGAAAGGAACAUGAGGAGAAGGCUAGAAGAAAAA [JL Nando mod 8] | 14.4 |
| AACAAUCUAUCUGAGGAUAUAUGUCGAAAGACAUGAGGAUCACCCAUGUAAAAACAUGAAAAGACAUAGAAGGCAGAUAGAUUGA [SS2: 1132] | 18.6 |
| AGCACGUGAUUGGAGGAUAUGCAGUAAGCAACAUGAGGAUCACCCAUGUCUGACCCUGAAAACCAGCAGAAGGCCGAUACAACCA [SS2-1.7] | 10.2 |
| CAUCAUGCGCCUAAGGAUAUGUCUCACAAGACAUGAGGAUCACCCAUGUAGAAUAAAUAAACGAUGCAGAAGGUGGAGCGCAUGA [Cexeri] | 40.2 |
| AAAAGACAUGAGGAUCACCCAUGUUAAGACGUAGGAGGAUAUGUAUGGAAAACAUGCUGUACAGAAGGCCUGUGUC [SS1 - 26] | 17.8 |
| AUAAAUAAAAUCAAGGAUAUCCAAAAAAAAACAUGAGGAUCACCCAUGUAAAAGAAAAUAAAAUGGGAGAAGGUGAAAAAUAAAU [SS2 M 6] | 39.4 |
| AGAAAUAAAAUGGAGGAUAUCCAAAAGAAAACAUGAGGAUCACCCAUGUAAAAGAAAAUAAAAUGGGAGAAGGCCACAAAUAAAG | 26.8 |
| AAAAAAAAAGUGCAGGAUAUCCUCAUGGCUACAUGAGGAUCACCCAUGUGAAGAAAAGCACAUGAGGAGAAGGGCACAAAAAAAAA [Balance beam] | 12.3 |
| AGGAGACAUGAGGAUCACCCAUGUGAGAAGAGGCGAGGAUAUCGAAAGAAAGAAGAGAAACGAGAAGGCGCGAGAC [salish99-SS1-029] | 15.4 |
| AGAAAUAAAACACAGGAUAUCCAAAAGAAAACAUGAGGAUCACCCAUGUAAAAGAAAAUAAAAUGGGAGAAGGGUGAAAAUAAAG [Breaking Jandersonlee's winner (80%)] | 38 |

tested on: MS2 coat protein; assay: apparent KD of MS2 coat protein, switch OFF state (with FMN for OFF switches, without FMN for ON switches); designed switch direction (-1 OFF switch, 1 ON switch): 1; higher = weaker reporter binding; settings: FMN input: 0 or 200 uM; Eterna round: R93 (includes R88 designs)
In short: as §1

| Sequence | apparent KD of MS2 coat protein [nM] |
| --- | --- |
| AUAUAUAUAAGGAAGGAUAUCCAAAAAUAAACAUGAGGAUCACCCAUGUCCAUAAAGAAUAAAUGGGAGAAGGUCCAUAUAUAUA [77%, More Tesla, 9] | 123 |
| AAAAAACAUGAGGAUCACCCAUGUAGAAACAUGGGAGGAUAUACGAAGACGAAAGUCAAAGUAGAAGGCCUAAGAA [Garnet 88] | 224 |
| AAAAAACAUGAGGAUCACCCAUGUGAAAAUAUGGGAGGAUAUACAAAGACGAGAGUCAAAGUAGAAGGCCUAAAAA [Mat - Same State 1 - Eli mod - D87] | 139 |
| GAAAAACAUGAGGAUCACCCAUGUGUAAAUAUGGGAGGAUAUACAAAGACGUAAGUCAGAGUAGAAGGCCUAAAAG [Garnet 93] | 176 |
| AAUAAUUAUACGAAGGAUAUCGGUAAUUAGACAUGAGGAUCACCCAUGUUAUAUGGUUAAAUAUUCGAGAAGGUCGAGGGUGAAA [JR_SS002_Sub505] | 32.7 |
| AACAUACAUGAGGAUCACCCAUGUUCCGGCAGGUCAGGAUAUUUAUCGAAUGAGUUCUAGAAAGAAGGGACAUAAA [JR_SS001_Sub008] | 62.7 |
| UAUAGACAUGAGGAUCACCCAUGUAGAAUUAUGGGAGGAUAUACAAAGACGAGAGUCAGAGUAGAAGGCCUAGGAU [salish99-ss1-154] | 63.7 |
| UGGAGACAUGAGGAUCACCCAUGUGAGAAGAGGCGAGGAUAUCGAAAGAAAGAAGAGAAACGAGAAGGCGCGAGAC [salish99-SS1-045] | 41.9 |
| AAAGAAAAACUAGAGGAUAUCCGAGUGGUAACAUGAGGAUCACCCAUGUGAUGAAAGGAACAUGAGGAGAAGGCUAGAAGAAAAA [JL Nando mod 8] | 257 |
| AACAAUCUAUCUGAGGAUAUAUGUCGAAAGACAUGAGGAUCACCCAUGUAAAAACAUGAAAAGACAUAGAAGGCAGAUAGAUUGA [SS2: 1132] | 36.1 |
| AGCACGUGAUUGGAGGAUAUGCAGUAAGCAACAUGAGGAUCACCCAUGUCUGACCCUGAAAACCAGCAGAAGGCCGAUACAACCA [SS2-1.7] | 13 |
| CAUCAUGCGCCUAAGGAUAUGUCUCACAAGACAUGAGGAUCACCCAUGUAGAAUAAAUAAACGAUGCAGAAGGUGGAGCGCAUGA [Cexeri] | 222 |
| AAAAGACAUGAGGAUCACCCAUGUUAAGACGUAGGAGGAUAUGUAUGGAAAACAUGCUGUACAGAAGGCCUGUGUC [SS1 - 26] | 20.8 |
| AUAAAUAAAAUCAAGGAUAUCCAAAAAAAAACAUGAGGAUCACCCAUGUAAAAGAAAAUAAAAUGGGAGAAGGUGAAAAAUAAAU [SS2 M 6] | 68 |
| AGAAAUAAAAUGGAGGAUAUCCAAAAGAAAACAUGAGGAUCACCCAUGUAAAAGAAAAUAAAAUGGGAGAAGGCCACAAAUAAAG | 31.4 |
| AAAAAAAAAGUGCAGGAUAUCCUCAUGGCUACAUGAGGAUCACCCAUGUGAAGAAAAGCACAUGAGGAGAAGGGCACAAAAAAAAA [Balance beam] | 23.1 |
| AGGAGACAUGAGGAUCACCCAUGUGAGAAGAGGCGAGGAUAUCGAAAGAAAGAAGAGAAACGAGAAGGCGCGAGAC [salish99-SS1-029] | 33.6 |
| AGAAAUAAAACACAGGAUAUCCAAAAGAAAACAUGAGGAUCACCCAUGUAAAAGAAAAUAAAAUGGGAGAAGGGUGAAAAUAAAG [Breaking Jandersonlee's winner (80%)] | 52.6 |
